Patent US12534534 (F STAR BETA, dated 2026)
Substitutions are numbered along the chain they refer to. Numbers in names are those of the source.

T1: cCD137-mFc-Avi (cynomolgus, Homodimer through the mouse Fc (one chain given). In the biotinylated version one biotin sits on the Avi-tag lysine of each monomer.)
T1 construct: dimer; biotinylated version used on streptavidin plates; also called cyno CD137-mFc-Avi; cyno CD137-mFc
T1 chain: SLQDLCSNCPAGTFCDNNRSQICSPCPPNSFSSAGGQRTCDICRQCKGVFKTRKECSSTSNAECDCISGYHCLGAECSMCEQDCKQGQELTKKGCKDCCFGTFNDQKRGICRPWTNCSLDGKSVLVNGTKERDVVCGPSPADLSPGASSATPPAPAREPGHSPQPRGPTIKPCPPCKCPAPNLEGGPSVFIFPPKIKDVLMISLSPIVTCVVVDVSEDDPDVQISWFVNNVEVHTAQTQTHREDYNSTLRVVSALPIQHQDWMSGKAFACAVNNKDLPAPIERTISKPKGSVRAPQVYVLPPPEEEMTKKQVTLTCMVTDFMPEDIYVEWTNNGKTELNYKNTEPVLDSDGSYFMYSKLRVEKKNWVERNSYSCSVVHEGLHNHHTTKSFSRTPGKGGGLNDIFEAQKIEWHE

B1: FS20-22-49AA/FS30-10-3 (bispecific antibody, human IgG1, kappa, L234A L235A, V domains shown)
VH: EVQLLESGGGLVQPGGSLRLSCAASGFTFSSYDMSWVRQAPGKGLEWVSDIDPTGSKTDYADSVKGRFTISRDNSKNTLYLQMNSLRAEDTAVYYCARDLNVYGFDYWGQGTLVTVSS
VL: EIVLTQSPGTLSLSPGERATLSCRASQSVSSSYLAWYQQKPGQAPRLLIYGASSRATGIPDRFSGSGSGTDFTLTISRLEPEDFAVYYCQQSYSYPVTFGQGTKVEIKR
notes: M97 (Kabat) to N against FS30-10; also called FS30-10-3 in mAb^2 format
B2: FS20-22-49AA/FS30-10-16 (bispecific antibody, human IgG1, kappa, L234A L235A, V domains shown)
VH: B1 VH with N101L
VL: B1 VL
notes: M97 (Kabat) to L against FS30-10; also called FS30-10-16 in mAb^2 format
B3: FS20-22-49AA/FS30-5-37 (bispecific antibody, human IgG1, kappa, L234A L235A, V domains shown)
VH: EVQLLESGGGLVQPGGSLRLNCAASGFTFSSYAMSWVRQAPGKGLEWVSAISGSGGSTYYADSVKGRFTISRDNSKNTLYLQMNSLRAEDTAVYYCARSYDKYWGSSIYSGLDYWGQGTLVTVSS
VL: EIVLTQSPGTLSLSPGERATLSCRASQSVSSSYLAWYQQKPGQAPRLLIYGASSRATGIPDRFSGSGSGTDFTLTISRLEPEDFAVYYCQQYYSYYPVTFGQGTKVEIKR
notes: M100D to I and M100H to L against FS30-5; also called FS30-5-37 in mAb^2 format
B4: FS20-22-49AA/FS30-10-12 (bispecific antibody, human IgG1, kappa, L234A L235A, V domains shown)
VH: B1 VH with N101T
VL: B1 VL
notes: M97 (Kabat) to T against FS30-10; also called FS30-10-12 in mAb^2 format
B5: FS20-22-49AA/FS30-35-14 (bispecific antibody, human IgG1, kappa, L234A L235A, V domains shown)
VH: EVQLLESGGGLVQPGGSLRLSCAASGFTFSAYNIHWVRQAPGKGLEWVSDISPYGGATNYADSVKGRFTISRDNSKNTLYLQMNSLRAEDTAVYYCARNLYELSAYSYGADYWGQGTLVTVSS
VL: B3 VL with S94Y, Y95S, Y96S, V98I
notes: M100F (Kabat) to A against FS30-35; also called FS30-35-14 in mAb^2 format

target: T2, hCD137-mFc-Avi (human, UniProt Q07011 24-186); experiment: SPR (Biacore 3000), against the positive control G1/MOR7480.1
T2 construct: dimer; also called human CD137-mFc-Avi; human CD137-mFc
Experimental: (§1) Briefly, 25 µg/ml anti-human IgG (Fc) antibody (GE Healthcare, Human Antibody Capture Kit, BR100839) was coated on flow cells 1, 2, 3 and 4 of a Biacore sensor chip CM5 (GE Healthcare, BR100012) for 3 minutes at 5 µl/min, achieving a final response of approximately 4300 RU. The mAb² clones, diluted in HBS-EP buffer (GE Healthcare, BR100188) at 0.5 µg/ml, were injected individually on flows cell 2, 3 and 4 at 30 µl/min to achieve a response of approximately 80 RU. […] Regeneration was achieved by injecting 3 M magnesium chloride (GE Healthcare, Human Antibody Capture Kit, BR100839) for 30 seconds at a rate of 30 µl/min. […] These slightly less stringent conditions were used to assess whether this molecule could bind to cyno CD137-mFc. Subtracted data (flow cell 2-flow cell 1, flow cell 3-flow cell 1, or flow cell 4-flow cell 1) were analysed using BIAevaluation 3.2 Software (GE Healthcare) to identify binding using the model 1:1 binding with mass transfer, with refractive index (RI) constant 0.

fold higher binding affinity than G1/MOR7480.1 [fold] | Binder
~3 | B1
~3 | B2

target: T2, hCD137-mFc-Avi; experiment: cell-based, 100 nM hCD137-mFc-Avi with 200 nM antibody, competitor human CD137L on DO11.10 cells, GMFI normalised to G1/11D4 = 0 and G1/MOR7480.1 = 100; mean of n=2
Experimental: The cells were washed once in PBS and 100 μl/well of secondary antibody (anti-mouse Fc-488 antibody, Jackson Immuno Research, 115-546-008) diluted 1:1000 in PBS containing 2% BSA was then added and incubated for 30 mins at 4° C. in the dark. The cells were washed once with PBS and resuspended in 100 μl of PBS containing DAPI (Biotium, 40043) at 1 μg/ml. The cells were analysed using a Canto II flow cytometer (BD Bioscience). Dead cells were excluded and the fluorescence in the FITC channel (488 nm/530/30) was measured. […] The data was analysed using a one-way ANOVA test and Tukey's multiple comparisons test using GraphPad Prism.

% CD137 ligand blocking activity [%] | Binder
105 | B3
65 | B1
46 | B4
76 | B2

target: human CD137 on DO11.10-hCD137 cells (human, UniProt Q07011 24-255); experiment: cell-based or functional assay

EC50 (nM), mIL-2 release, DO11.10-hCD137 T cell assay, crosslinked (mean of n = 2) [nM] | Emax (mIL-2 pg/ml), DO11.10-hCD137 T cell assay, crosslinked [pg/mL] | Binder
13.4 | 18100 | B3
5.1 | 19800 | B5
6.1 | 17000 | B1
9.5 | 17200 | B4
4.7 | 16300 | B2

Target: T1, cCD137-mFc-Avi
Experiment: SPR (Biacore 3000), mAb^2 captured by anti-human Fc, dimeric CD137-mFc as analyte, 1:1 model with mass transfer
Experimental: as §1

Kd [nM] | Binder
3 | B3
0.67 | B5
0.22 | B1
4.63 | B4
0.15 | B2

target: T2, hCD137-mFc-Avi; experiment: as above
Experimental: as §1

Kd [nM] | Binder
3.45 | B3
0.6 | B5
0.19 | B1
6.31 | B4
0.17 | B2
